According to paper PMC3340179:

Target: STAT3-GFP (STAT3-EGFP fusion, unphosphorylated) (UniProt P40763)
Assay: MST

Chain of STAT3-GFP (STAT3-EGFP fusion, unphosphorylated) (P40763 whole entry, the tested form may be a part): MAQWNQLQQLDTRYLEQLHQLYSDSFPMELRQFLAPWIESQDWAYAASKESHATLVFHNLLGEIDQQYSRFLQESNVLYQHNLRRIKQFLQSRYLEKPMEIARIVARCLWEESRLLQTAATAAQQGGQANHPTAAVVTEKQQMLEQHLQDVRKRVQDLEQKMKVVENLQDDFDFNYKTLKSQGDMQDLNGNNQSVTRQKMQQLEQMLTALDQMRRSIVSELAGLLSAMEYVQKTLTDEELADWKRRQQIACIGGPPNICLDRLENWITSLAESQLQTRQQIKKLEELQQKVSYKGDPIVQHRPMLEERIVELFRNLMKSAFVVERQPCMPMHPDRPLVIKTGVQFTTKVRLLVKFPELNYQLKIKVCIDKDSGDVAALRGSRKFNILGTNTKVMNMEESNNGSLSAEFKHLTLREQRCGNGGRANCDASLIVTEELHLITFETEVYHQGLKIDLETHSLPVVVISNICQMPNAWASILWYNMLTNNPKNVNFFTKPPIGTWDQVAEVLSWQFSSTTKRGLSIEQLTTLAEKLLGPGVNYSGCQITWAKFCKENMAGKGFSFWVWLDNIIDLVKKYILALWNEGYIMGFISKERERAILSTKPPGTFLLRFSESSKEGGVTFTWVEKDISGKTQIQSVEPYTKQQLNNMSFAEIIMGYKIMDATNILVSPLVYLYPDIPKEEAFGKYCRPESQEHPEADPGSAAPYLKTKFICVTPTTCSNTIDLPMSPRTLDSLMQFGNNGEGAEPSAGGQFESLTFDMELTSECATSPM

**Q.** “AAAACAAAACGAAACAAACAAACTA (double strand) [S+100]” was tested. Which Kd did it give?
**A.** 23.3 µM

**Q.** Which Kd does the source give for “GTTTCCGGGAAAGCAGTAGGTTTCCGGGAAAG (double strand) [GAS]” here?
**A.** 37.9 µM
